Source: patent US20160257957

Key:
[1] = target: T1, Arc C-terminal protein (132-396 a.a.), Q63053
T1 chain: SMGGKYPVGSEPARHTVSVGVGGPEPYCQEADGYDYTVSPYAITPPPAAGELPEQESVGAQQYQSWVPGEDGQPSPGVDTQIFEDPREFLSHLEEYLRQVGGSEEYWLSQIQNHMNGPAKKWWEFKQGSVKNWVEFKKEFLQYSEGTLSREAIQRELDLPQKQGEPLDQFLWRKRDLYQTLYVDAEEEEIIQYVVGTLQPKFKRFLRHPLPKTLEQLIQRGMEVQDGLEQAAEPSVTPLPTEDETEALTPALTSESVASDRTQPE

[2] = target: T2, HHR23A (recombinant, wild type), P54725
T2 chain: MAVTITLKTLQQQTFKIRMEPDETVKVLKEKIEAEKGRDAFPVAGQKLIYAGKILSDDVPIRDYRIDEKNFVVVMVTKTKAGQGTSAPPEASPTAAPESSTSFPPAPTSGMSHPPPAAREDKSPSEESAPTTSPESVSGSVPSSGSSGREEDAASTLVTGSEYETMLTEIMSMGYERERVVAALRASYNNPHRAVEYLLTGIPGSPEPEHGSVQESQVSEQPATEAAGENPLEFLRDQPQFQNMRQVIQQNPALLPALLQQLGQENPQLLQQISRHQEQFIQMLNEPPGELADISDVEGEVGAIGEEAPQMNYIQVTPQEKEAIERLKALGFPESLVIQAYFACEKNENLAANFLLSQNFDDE

B1: Ube3A (recombinant) (protein)
chain: SGEPQSDDIEASRMKRAAAKHLIERYYHQLTEGCGNEACTNEFCASCPTFLRMDNNAAAIKALELYKINAKLCDPHPSKKGASSAYLENSKGAPNNSCSEIKMNKKGARIDFKDVTYLTEEKVYEILELCREREDYSPLIRVIGRVFSSAEALVQSFRKVKQHTKEELKSLQAKDEDKDEDEKEKAACSAAAMEEDSEASSSRIGDSSQGDNNLQKLGPDDVSVDIDAIRRVYTRLLSNEKIETAFLNALVYLSPNVECDLTYHNVYSRDPNYLNLFIIVMENRNLHSPEYLEMALPLFCKAMSKLPLAAQGKLIRLWSKYNADQIRRMMETFQQLITYKVISNEFNSRNLVNDDDAIVAASKCLKMVYYANVVGGEVDTNHNEEDDEEPIPESSELTLQELLGEERRNKKGPRVDPLETELGVKTLDCRKPLIPFEEFINEPLNEVLEMDKDYTFFKVETENKFSFMTCPFILNAVTKNLGLYYDNRIRMYSERRITVLYSLVQGQQLNPYLRLKVRRDHIIDDALVRLEMIAMENPADLKKQLYVEFEGEQGVDEGGVSKEFFQLVVEEIFNPDIGMFTYDESTKLFWFNPSSFETEGQFTLIGIVLGLAIYNNCILDVHFPMVVYRKLMGKKGTFRDLGDSHPVLYQSLKDLLEYEGNVEDDMMITFQISQTDLFGNPMMYDLKENGDKIPITNENRKEFVNLYSDYILNKSVEKQFKAFRRGFHMVTNESPLKYLFRPEEIELLICGSRNLDFQALEETTEYDGGYTRDSVLIREFWEIVHSFTDEQKRLFLQFTTGTDRAPVGGLGKLKMIIAKNGPDTERLPTSHTCFNVLLLPEYSSKEKLKERLLKAITYAKGFGML
in vitro ubiquitination assay using purified recombinant proteins [1]: Ube3A ubiquitinated Arc in vitro | ubiquitination of HHR23A by Ube3A [2]: this domain is required for Ube3A to ubiquitinate HHR23A
